As a reminder, the Kd is the equilibrium constant for the complex coming apart. Lower therefore signals a tighter complex.

Assay [1] deals with T1, IL-2Rα-Fc (Acro Biosystems, catalog #ILA-H5251) (UniProt P01589 22-217, limits assumed).
T1 construct: Bought reagent; Captured on an anti-Fc chip as SPR ligand; also called CD25; not shown: Fc part of the bought fusion
T1 sequence (looked up): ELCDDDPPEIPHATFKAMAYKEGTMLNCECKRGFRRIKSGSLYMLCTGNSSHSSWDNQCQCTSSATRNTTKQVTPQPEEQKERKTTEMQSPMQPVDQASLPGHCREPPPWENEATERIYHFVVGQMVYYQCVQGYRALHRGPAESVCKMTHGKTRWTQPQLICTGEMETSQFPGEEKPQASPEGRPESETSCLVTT
Put plainly: SPR (Biacore T200), kinetic; receptor-Fc captured on anti-Fc CM5 chip, IL-2 variant as analyte. On the procedure:
(§1) Anti-Fc polyclonal antibodies were immobilized onto a CM5 chip (GE Life Sciences) using amine coupling chemistry (from Amine Coupling Kit, GE Life Sciences). The immobilization steps were carried out at a flow rate of 25 μL/minute in 1×HBS-EP+ buffer (GE Life Sciences; 10× Stock diluted before use). The sensor surfaces were activated for 7 minutes with a mixture of NHS (0.05 M) and EDC (0.2 M). The anti-Fc antibodies were injected over all four flow cells at a concentration of 25 μg/mL in 10 mM sodium acetate, pH 4.5, for seven minutes. Ethanolamine (1 M, pH 8.5) was injected for seven minutes to block any remaining activated groups.
(§2) Kinetic binding experiments were performed at 25° C. using 1×HBS-EP+ with 0.05% BSA buffer. IL-2Rα-Fc or IL-2Rβ-Fc (Acro Biosystems, catalog #ILA-H5251, ILB-H5253) was injected over the anti-Fc surface at concentrations of 3-10 μg/mL for 12 seconds at a flow rate of 10 μL/minute on flow cells 2, 3 and 4, followed by a buffer wash for 30 seconds at the same flow rate. Kinetic characterization of conjugated or unconjugated aldesleukin or variants was carried out in a range of concentrations from 1 nM-10 μM and one injection of no antigen. After capturing ligand (IL-2Rα-Fc or IL-2Rβ-Fc) on the anti-Fc surface, the analyte (IL-2 variant) was bound for 60 seconds, followed by a 180 second dissociation phase at a flow rate of 50 μL/min. Between each ligand capture and analyte binding cycle, regeneration was carried out using two injections of 10 mM Glycine pH 1.5 for 30 seconds at 30 μL/minute, followed by a 30 second buffer wash step.
Background: Surface plasmon resonance follows binding to a sensor surface in real time, without labels.

Assay [2] addresses T2, IL-2Rβ-Fc (Acro Biosystems, catalog #ILB-H5253) (UniProt P14784 27-239, limits assumed).
T2 construct: Bought reagent; Captured on an anti-Fc chip as SPR ligand; also called CD122; not shown: Fc part of the bought fusion
T2 sequence (looked up): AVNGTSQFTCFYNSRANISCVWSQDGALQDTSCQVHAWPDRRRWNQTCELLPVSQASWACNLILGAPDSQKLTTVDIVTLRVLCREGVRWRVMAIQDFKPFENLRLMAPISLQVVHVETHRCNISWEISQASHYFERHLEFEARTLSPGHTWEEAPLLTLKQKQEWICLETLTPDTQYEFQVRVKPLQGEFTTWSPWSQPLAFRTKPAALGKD
The description is as above. How it is done: as §1, §2

The target of assay [3] is T1, IL-2Rα-Fc (Acro Biosystems, catalog …). In words: SPR, kinetic binding to IL-2 receptor.
The target of assay [4] is T2, IL-2Rβ-Fc (Acro Biosystems, catalog …). In words: SPR, kinetic binding to IL-2 receptor.
Assay [5] has as its target T1, IL-2Rα-Fc (Acro Biosystems, catalog …). Put plainly: SPR, receptor-Fc captured on anti-Fc chip.

B1: Ald-6HIS_Q73pAMF (SP9965), unconjugated (ligand)
chain: MPTSSSTKKTQLQLEHLLLDLQMILNGINNYKNPKLTRMLTFKFYMPKKATELKHLQCLEEELKPLEEVLNLAFSKNFHLRPRDLISNINVIVLELKGSETTFMCEYADETATIVEFLNRWITFSQSIISTLTGGSHHHHHH
modifications: X74 = pAMF (Q73 in SEQ ID NO: 2/3 numbering)
notes: also called Aldesleukin-6His Q73TAG p-azidomethyl-L-phenylalanine
B1: the Kd in assay [1] came to 7 nM; in assay [2], 80 nM.

B2: Ald-6HIS_S4pAMF (SP9954), unconjugated (ligand)
chain: MPTSFSTKKTQLQLEHLLLDLQMILNGINNYKNPKLTRMLTFKFYMPKKATELKHLQCLEEELKPLEEVLNLAQSKNFHLRPRDLISNINVIVLELKGSETTFMCEYADETATIVEFLNRWITFSQSIISTLTGGSHHHHHH
modifications: X5 = p-azidomethyl-L-phenylalanine (pAMF; S4 in SEQ ID NO: 2/3 numbering)
notes: also called Aldesleukin-6His S4TAG p-azidomethyl-L-phenylalanine
On to B2, for which the values for the dissociation constant (Kd) in assay [1] and in assay [2] were 8 nM and 300 nM, respectively.

B3: Aldesleukin-6His_S4/Y30/K34/Q73 pAMF (SP10686) conjugated to SC547 stump (ligand)
chain: MPTSFSTKKTQLQLEHLLLDLQMILNGINNFKNPFLTRMLTFKFYMPKKATELKHLQCLEEELKPLEEVLNLAFSKNFHLRPRDLISNINVIVLELKGSETTFMCEYADETATIVEFLNRWITFSQSIISTLTGGSHHHHHH
modifications: X5, X31, X35, X74 = pAMF (S4, Y30, K34, Q73), each conjugated to SC547 (conjugation stump)
notes: also called SP10726 stump conjugate
On to B3, for which the Kd was 30 nM in assay [3] and 600 nM in assay [4].

B4: Aldesleukin-6His_S4/Y30/K34 pAMF F41K (SP10684) conjugated to SC547 stump (ligand)
chain: MPTSFSTKKTQLQLEHLLLDLQMILNGINNFKNPFLTRMLTKKFYMPKKATELKHLQCLEEELKPLEEVLNLAQSKNFHLRPRDLISNINVIVLELKGSETTFMCEYADETATIVEFLNRWITFSQSIISTLTGGSHHHHHH
modifications: X5, X31, X35 = pAMF (S4, Y30, K34), each conjugated to SC547 (conjugation stump)
notes: also called SP10724 stump conjugate
In turn, B4 yielded a Kd in assay [4] of 3000 nM.

B5: Ald-6HIS_R80pAMF (SP9968), unconjugated (ligand)
chain: MPTSSSTKKTQLQLEHLLLDLQMILNGINNYKNPKLTRMLTFKFYMPKKATELKHLQCLEEELKPLEEVLNLAQSKNFHLFPRDLISNINVIVLELKGSETTFMCEYADETATIVEFLNRWITFSQSIISTLTGGSHHHHHH
modifications: X81 = pAMF (R80 in SEQ ID NO: 2/3 numbering)
notes: also called Aldesleukin-6His R80TAG p-azidomethyl-L-phenylalanine
Take B5: the values for the Kd in assay [1] and in assay [2] were 20 nM and 400 nM, respectively.

B6: SP10725 (Aldesleukin-6His_S4/Y30/K34/R80 pAMF conjugated to SC579) (ligand)
chain: MPTSFSTKKTQLQLEHLLLDLQMILNGINNFKNPFLTRMLTFKFYMPKKATELKHLQCLEEELKPLEEVLNLAQSKNFHLFPRDLISNINVIVLELKGSETTFMCEYADETATIVEFLNRWITFSQSIISTLTGGSHHHHHH
modifications: X5, X31, X35, X81 = pAMF (S4, Y30, K34, R80), each conjugated to SC579 (releasable 20 kDa mPEG Fmoc-DBCO linker)
notes: also called SP10725 PEG conjugate
As to B6, the binding result in assay [5] is “no binding”.

B7: Aldesleukin-6His_S4/K34/V114 pAMF (SP10683) conjugated to SC547 stump (ligand)
chain: MPTSFSTKKTQLQLEHLLLDLQMILNGINNYKNPFLTRMLTFKFYMPKKATELKHLQCLEEELKPLEEVLNLAQSKNFHLRPRDLISNINVIVLELKGSETTFMCEYADETATIFEFLNRWITFSQSIISTLTGGSHHHHHH
modifications: X5, X35, X115 = pAMF (S4, K34, V114), each conjugated to SC547 (conjugation stump)
notes: also called SP10723 stump conjugate
As for B7, the values for the Kd in assay [3] and in assay [4] were 300 nM and 2000 nM, respectively.

B8: Ald-6HIS_V114pAMF (SP9970) conjugated to DBCO 2 x 10 kDa PEG (PEG2) (ligand)
chain: MPTSSSTKKTQLQLEHLLLDLQMILNGINNYKNPKLTRMLTFKFYMPKKATELKHLQCLEEELKPLEEVLNLAQSKNFHLRPRDLISNINVIVLELKGSETTFMCEYADETATIFEFLNRWITFSQSIISTLTGGSHHHHHH
modifications: X115 = pAMF (V114) conjugated to branched 20 kDa PEG (DBCO 2 x 10 kDa PEG, PEG2)
notes: also called SP9970 PEG2 conjugated
For B8, the dissociation constant Kd in assay [1] stood at 500 nM.

B9: Ald-6HIS_S4pAMF (SP9954) conjugated to DBCO 2 x 10 kDa PEG (PEG2) (ligand)
chain: MPTSFSTKKTQLQLEHLLLDLQMILNGINNYKNPKLTRMLTFKFYMPKKATELKHLQCLEEELKPLEEVLNLAQSKNFHLRPRDLISNINVIVLELKGSETTFMCEYADETATIVEFLNRWITFSQSIISTLTGGSHHHHHH
modifications: X5 = pAMF (S4) conjugated to branched 20 kDa PEG (DBCO 2 x 10 kDa PEG, PEG2)
notes: also called SP9954 PEG2 conjugated
The molecule B9 showed a Kd in assay [1] of 100 nM.

B10: Ald-6HIS_Y30pAMF (SP9957), unconjugated (ligand)
chain: MPTSSSTKKTQLQLEHLLLDLQMILNGINNFKNPKLTRMLTFKFYMPKKATELKHLQCLEEELKPLEEVLNLAQSKNFHLRPRDLISNINVIVLELKGSETTFMCEYADETATIVEFLNRWITFSQSIISTLTGGSHHHHHH
modifications: X31 = pAMF (Y30 in SEQ ID NO: 2/3 numbering)
notes: also called Aldesleukin-6His Y30TAG p-azidomethyl-L-phenylalanine
As for B10, the Kd in assay [1] worked out at 9 nM; in assay [2], 200 nM.

For the origin of these results see patent US20260256927A1 (Merck Sharp & Dohme, published 2026).
